According to IntAct's records for PubMed 15117939:

B1: Mannan-binding lectin serine protease 2 (Homo sapiens), O00187-2 (parent)
chain: MRLLTLLGLLCGSVATPLGPKWPEPVFGRLASPGFPGEYANDQERRWTLTAPPGYRLRLYFTHFDLELSHLCEYDFVKLSSGAKVLATLCGQESTDTERAPGKDTFYSLGSSLDITFRSDYSNEKPFTGFEAFYAAEDIDECQVAPGEAPTCDHHCHNHLGGFYCSCRAGYVLHRNKRTCSEQSL

Tests used:
[1] = variants of: B1; conditions: with mbl2_human MBL2, P11226
[2] = variants of: B1; conditions: with fcn2_human FCN2, Q15485
Chain of fcn2_human FCN2, Q15485 (Q15485 whole entry): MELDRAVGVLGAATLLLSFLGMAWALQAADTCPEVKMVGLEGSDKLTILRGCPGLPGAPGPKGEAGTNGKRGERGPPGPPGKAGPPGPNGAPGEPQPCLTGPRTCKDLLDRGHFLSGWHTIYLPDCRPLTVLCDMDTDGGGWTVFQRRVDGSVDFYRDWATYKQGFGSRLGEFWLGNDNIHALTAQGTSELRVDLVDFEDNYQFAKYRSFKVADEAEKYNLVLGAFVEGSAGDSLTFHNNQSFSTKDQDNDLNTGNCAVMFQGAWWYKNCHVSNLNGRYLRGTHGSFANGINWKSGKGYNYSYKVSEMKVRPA

Chain of mbl2_human MBL2, P11226 (P11226 whole entry): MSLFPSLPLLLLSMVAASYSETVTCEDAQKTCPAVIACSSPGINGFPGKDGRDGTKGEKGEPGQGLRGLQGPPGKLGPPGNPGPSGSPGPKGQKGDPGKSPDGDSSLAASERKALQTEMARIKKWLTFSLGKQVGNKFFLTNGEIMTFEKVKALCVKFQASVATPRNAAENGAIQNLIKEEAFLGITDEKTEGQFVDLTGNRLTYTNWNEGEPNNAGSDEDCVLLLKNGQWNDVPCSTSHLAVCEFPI

Variant | effect of a mutation on the interaction [1] | effect of a mutation on the interaction [2]
E124A | decreasing interaction strength | with no effect
R56A | with no effect | with no effect
E148A | decreasing interaction strength | decreasing interaction strength
E98A | decreasing interaction strength | decreasing interaction strength
E93Q | with no effect | with no effect
D96N | with no effect | with no effect
Y74A | disrupting interaction strength | disrupting interaction strength
E73A | with no effect | with no effect
D75A | decreasing interaction strength | decreasing interaction strength
H70A | with no effect | with no effect
Y121A | disrupting interaction strength | disrupting interaction strength
D120G | disrupting interaction strength | disrupting interaction strength
